Two proteins from publication PMC4372403, “Glycosylation of Phenolic Compounds by the Site-Mutated β-Galactosidase from Lactobacillus bulgaricus L3” (PLoS ONE, 2015) can be followed below.

Positions count from the first letter of the chain named. Names and notes keep the numbering of the source.

Substrate in this data set: O=[N+]([O-])c1ccccc1O[C@@H]1O[C@H](CO)[C@H](O)[C@H](O)[C@H]1O
As to the kind of experiment: purified protein. Type of data set: biochemical, Lactobacillus delbrueckii. To be noted: 37°C, 10 min, oNPGal 0.5 to 50 mM, hydrolysis.

B1: BgaL3 (β-galactosidase from Lactobacillus bulgaricus L3) (Lactobacillus delbrueckii subsp. bulgaricus) (protein)
chain: MSNKLVKEKRVDQADLAWLTDPEVYEVNTIPPHSDHESFQSQEELEEGKSSLVQSLDGDWLIDYAENGQGPVNFYAEDFDDSNFKSVKVPGNLELQGFGQPQYVNVQYPWDGSEEIFPPQIPSKNPLASYVRYFDLDEAFWDKEVSLKFDGAATAIYVWLNGHFVGYGEDSFTPSEFMVTKFLKKENNRLAVALYKYSSASWLEDQDFWRMSGLFRSVTLQAKPRLHLEDLKLTASLTDNYQKGKLEVEANIAYRLPNASFKLEVRDSEGDLVAEKLGPIRSEQLEFTLADLPVAAWSAEKPNLYQVRLYLYQAGSLLEVSRQEVGFRNFELKDGIMYLNGQRIVFKGANRHEFDSKLGRAITEEDMIWDIKTMKRSNINAVRCSHYPNQSLFYRLCDKYGLYVIDEANLESHGTWEKVGGHEDPSFNVPGDDQHWLGASLSRVKNMMARDKNHASILIWSLGNESYAGTVFAQMADYVRKADPTRVQHYEGVTHNRKFDDATQIESRMYVPAKVIEEYLTNKPAKPFISVEYAHAMGNSVGDLAAYTALEKYPHYQGGFIWDWIDQGLEKDGHLLYGGDFDDRPTDYEFCGNGLVFADRTESPKLANVKALYANLKLEVKDGQLFLKNDNLFTNSSSYYFLTSLLVDGKLTYQSRPLTFGLEPGESGTFALPWPEVADEKGEVVYRVTAHLKEDLPWADEGFTVAEAEEVAQKLPEFKPEGRPDLVDSDYNLGLKGNNFQILFSKVKGWPVSLKYAGREYLKRLPEFTFWRALTDNDRGAGYGYDLARWENAGKYARLKDISCEVKEDSVLVKTAFTLPVALKGDLTVTYEVDGRGKIAVTADFPGAEEAGLLPAFGLNLALPKELTDYRYYGLGPNESYPDRLEGNYLGIYQGAVKKNFSPYLRPQETGNRSKVRWYQLFDEKGGLEFTANGADLNLSALPYSAAQIEAADHAFELTNNYTWVRALSAQMGVGGDDSWGQKVHPEFCLDAQKARQLRLVIQPLLLK
In general, Km refers to the concentration of substrate that gives half-maximal velocity. By Vmax is commonly meant the rate approached at saturating substrate. As usually defined, the kcat is the maximal rate divided by the concentration of active sites. Broadly, the kcat/Km is the turnover number divided by the Michaelis constant. Consider B1, for which the Km was 1.38 mM, the Vmax came to 6530 µmol/min/mg, the kcat was 12500 s⁻¹ and the kcat/Km was determined as 9.06e+06 M⁻¹ s⁻¹.

B2: BgaL3 (β-galactosidase from Lactobacillus bulgaricus L3) (Lactobacillus delbrueckii subsp. bulgaricus; W980F) (protein)
chain: B1 chain with W980F
Consider B2, for which the Km was 6.40 mM, the Vmax stood at 640 µmol/min/mg, the kcat is 1240 s⁻¹ and the kcat/Km stood at 194000 M⁻¹ s⁻¹.
